Article PMC12238353 (Scientific Reports, 2025)

Assays:
[1] = target: His-tagged IgD (SpyTagged HAPPID1: human anti-Phl p 7 IgD 102.1F10 with SpyTag003 and His6-tag on the heavy chain) (human) (UniProt P01880); assay: SPR; His-tagged IgD (100 nM) captured on an anti-His chip (CM5); two-fold dilution series of TEV-cleaved Nbs, 200 nM to 1.6 nM, flowed over; Biacore T200, 25 °C, 10 mM HEPES pH 7.4, 150 mM NaCl, 0.05% P20; koff from mono- or biphasic decay, kon from kobs against concentration, KD = koff/kon
[2] = target: IgD on Namalwa B cells (membrane-bound IgD) (human (endogenous in Namalwa)) (UniProt P01880); assay: flow cytometry on cells; Namalwa cells incubated with 1 µM AF488-labeled Nb:Catcher fusion in PBS pH 7.3, 1% BSA, 0.1% NaN3, 1 h at 4 °C (1 µM, 500 nM and 250 nM for titration); median fluorescence intensity
[3] = target: IgD-Fc (Fc region of human IgD, SpyTagged) (human); assay: SEC; complexes of Nb and IgD-Fc with IgD-Fc at 2 µM, incubated overnight at 4 °C; Superdex 200 Increase 10/300 GL in HBS-az at 10 °C
[4] = target: T1, Phl p 7 (antigen of HAPPID1) on an SA chip (Phleum pratense (common timothy), UniProt O82040); assay: SPR; IgD (HAPPID1) captured by its antigen Phl p 7 on an SA chip; 25 nM aδNb408 or aδNb408-Nb pairs flowed over; 25 °C, running buffer with 5 mM CaCl2; settings: both partners purified
T1 construct: Held on a streptavidin chip; also called SA-Phl p 7 chip
T1 sequence (O82040 whole entry): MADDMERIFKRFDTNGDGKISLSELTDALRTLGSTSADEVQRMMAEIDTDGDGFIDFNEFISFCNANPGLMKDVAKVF

Sequence of IgD on Namalwa B cells (membrane-bound IgD) (human (endogenous in Namalwa)) (P01880 whole entry, looked up, the tested form may be a part): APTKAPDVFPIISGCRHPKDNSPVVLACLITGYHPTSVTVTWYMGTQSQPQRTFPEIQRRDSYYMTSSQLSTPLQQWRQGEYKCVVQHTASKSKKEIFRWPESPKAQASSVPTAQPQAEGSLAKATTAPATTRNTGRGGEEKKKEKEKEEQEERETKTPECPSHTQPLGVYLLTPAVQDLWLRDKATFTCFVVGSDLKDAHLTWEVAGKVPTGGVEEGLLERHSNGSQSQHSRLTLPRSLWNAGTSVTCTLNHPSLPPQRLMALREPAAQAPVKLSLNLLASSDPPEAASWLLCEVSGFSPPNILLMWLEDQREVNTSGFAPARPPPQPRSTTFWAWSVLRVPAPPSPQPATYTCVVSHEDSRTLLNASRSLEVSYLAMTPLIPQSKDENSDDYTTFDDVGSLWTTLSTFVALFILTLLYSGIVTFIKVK

B1: anti-IgD Nb 408 (aδNb408), TEV-cleaved (VHH)
VHH: QVQLQESGGGLVQAGDSLRLSCVASGRSISNDAMAWFRQAPGKEREFVAAITWRYSNTHYSDSVKDRFTISRDNAKNTVYLQMNSLKPEDTADYYCAADRRGTGASSYSRDYDYWGQGTQVTVSS
B1 gave a KD1 [1] of 0.89 nM, a KD2 [1] of 5.2 nM and a koff1 [1] of 0.00074 s⁻¹. The koff2 [1] was 0.0043 s⁻¹ and the kon [1] was 820000 M⁻¹ s⁻¹.

B2: AF488-labeled monovalent aδNb408 (SpyTagged aδNb408 reacted with AF488-labeled SpyCatcher003) (VHH)
VHH: B1 VHH
In the case of B2, the MFI [2] is reported as 1340.

B3: His-tagged anti-IgD Nb 408 (aδNb408) (VHH)
VHH: B1 VHH
B3 was tested, and the stoichiometry N [3] was 2 Nb:IgD.

B4: His-tagged anti-IgD Nb 367 (aδNb367) (VHH)
VHH: QVQLQESGGGLVQPGGSLRLACAASGFSLSTYTMSWVRQSPGKGLEWVSTITSDGGWTSYRDSVKGRFTISRDNAKNTLYLQMNSLNPEDTAVYYCRRGVGVVRGERPGGQGTQVTVSS
In the case of B4, the stoichiometry N [3] is reported as 2 Nb:IgD.

B5: AF488-labeled monovalent aδNb367 (SpyTagged aδNb367 reacted with AF488-labeled SpyCatcher003) (VHH)
VHH: B4 VHH
B5 was tested, and the MFI [2] was 1450.

B6: anti-IgD Nb 367 (aδNb367), TEV-cleaved (VHH)
VHH: B4 VHH
B6 gave a Kd [1] of 2.4 nM, a koff [1] of 0.00047 s⁻¹ and a kon [1] of 200000 M⁻¹ s⁻¹.

B7: anti-IgD Nb 571 (aδNb571), TEV-cleaved (VHH)
VHH: QVQLQESGGGLVQPGGSLRLSCAASGTPFSASVMAWYRQAPGKERVWVATITSDSMTYYADSVNGRFTISRDNAKSTVYLQMNSLKPEDTAAYICRHAASASWGQGTQVTVSS
Work on B7 yielded a Kd [1] of 0.66 nM, a koff [1] of 0.0012 s⁻¹ and a kon [1] of 1.8e+06 M⁻¹ s⁻¹.

B8: His-tagged anti-IgD Nb 571 (aδNb571) (VHH)
VHH: B7 VHH
In the case of B8, the stoichiometry N [3] is reported as 1 Nb:IgD.

B9: AF488-labeled monovalent aδNb571 (SpyTagged aδNb571 reacted with AF488-labeled SpyCatcher003) (VHH)
VHH: B7 VHH
With B9 the MFI [2] was 921.

B10: human anti-Phl p 7 IgD 102.1F10 (HAPPID1) (antibody, V domains shown)
VH: QVQLVQSGAEVRNPGASVKVSCKASGYTFTSYAIHWVRQAPGHRLEWVGRINTDNGNTKYSQKFHGRVALSRDTSASTTYMDLSSLNSEDTAVYYCARAFYYSSGVMFDSWGQGALVTVSS
VL: QSALTQPPSVSGAPGQRVSISCTGGSSNFGAGYDVHWYQQLPATAPKLLIYGNNNRPSGVPDRFSGSKSGTSASLAITGLQAEDEGDYFCQSFDTSLSGWIFGGGTKLTVL
notes: heavy-chain variable domain of the human anti-Phl p 7 antibody 102.1F10; pVITRO1-HAPPID1 at Addgene; human immunoglobulin heavy constant delta, secreted form; UniProt P01880-1 is printed for the IgD-Fc used in this study; light chain of 102.1F10; also called full-length IgD; source: stably transfected FreeStyle 293-F cells; copies: 2 + 2
B10: binds [4].

B11: anti-IgD Nb 107 (aδNb107), TEV-cleaved (VHH)
VHH: QVQLQESGGGLVQAGASLRLSCTASERTFSPYAMGWFRQAPGREREVIASIFWTGGNTGYADSVKGRFTISRDTAKNTVYLQMSNLKPEDTAVYYCGARTSASAPIYGLWGQGTQVTVSS
B11 showed a KD1 [1] of 3.2 nM, a KD2 [1] of 22 nM and a koff1 [1] of 0.00066 s⁻¹. The koff2 [1] was 0.0046 s⁻¹ and the kon [1] was 210000 M⁻¹ s⁻¹.

B12: His-tagged anti-IgD Nb 107 (aδNb107) (VHH)
VHH: B11 VHH
For B12, the stoichiometry N [3] was 2 Nb:IgD.

B13: AF488-labeled monovalent aδNb107 (SpyTagged aδNb107 reacted with AF488-labeled SpyCatcher003) (VHH)
VHH: B11 VHH
B13 was tested, and the MFI [2] was 662.
